Measured values as given in patent publication US20240310383A1, “Proteomic Risk Score For Osteoarthritis (OA)” (Regeneron Pharmaceuticals, Inc., priority 2023, published 2024).

Test system: patients with pain due to osteoarthritis of the knee or hip
Experiment: WOMAC pain and functional score improvement in R475-OA-1688 clinical trial, stratified by OA proteomic risk score groups
Type: in vivo, human

B1: fasinumab (antibody, chains of the INN, looked up, V domains shown)
VH: QVQLVQSGAEVKKPGASVKVSCKVSGFTLTELSIHWVRQAPGKGLEWMGGFDPEDGETIYAQKFQGRVTMTEDTSTDTAYMELTSLRSEDTAVYYCSTIFGVVTNFDNWGQGTLVTVSS
VL: DIQMTQSPSSLSASAGDRVTITCRASQAIRNDLGWYQQKPGKAPKRLIYAAFNLQSGVPSRFSGSGSGTEFTLTISSLQPEDLASYYCQQYNRYPWTFGQGTKVEIK
notes: anti-NGF antibody (NGF antagonist) tested in phase 3 study R475-OA-1688
efficacy compared with both NSAIDs or placebo treated patients (Fasinumab 1q4w, OA proteomic score high risk group): has efficacy benefits | efficacy compared with either NSAIDs or placebo (fasinumab 1q4w, patients in 1st to 3rd OA proteomic score quartiles): maintains efficacy superiority | efficacy profile (both WOMAC pain and WOMAC functional scores) (patients in 1st to 3rd OA proteomic score quartiles, fasinumab 1q4w, FIG. 9 and FIG. 10): better efficacy profile
